Measurements taken from patent US20060121462A1, “Receptor and screening methods” (priority 2003, published 2006).

Experiments:
C3aR [1] = target: T1, C3aR (Homo sapiens, UniProt Q16581); assay: Radiolabelled ligand competition receptor binding, C3aR-transfected RBL cells
T1 construct: expressed in transfected cells
T1 sequence (Q16581 1-482): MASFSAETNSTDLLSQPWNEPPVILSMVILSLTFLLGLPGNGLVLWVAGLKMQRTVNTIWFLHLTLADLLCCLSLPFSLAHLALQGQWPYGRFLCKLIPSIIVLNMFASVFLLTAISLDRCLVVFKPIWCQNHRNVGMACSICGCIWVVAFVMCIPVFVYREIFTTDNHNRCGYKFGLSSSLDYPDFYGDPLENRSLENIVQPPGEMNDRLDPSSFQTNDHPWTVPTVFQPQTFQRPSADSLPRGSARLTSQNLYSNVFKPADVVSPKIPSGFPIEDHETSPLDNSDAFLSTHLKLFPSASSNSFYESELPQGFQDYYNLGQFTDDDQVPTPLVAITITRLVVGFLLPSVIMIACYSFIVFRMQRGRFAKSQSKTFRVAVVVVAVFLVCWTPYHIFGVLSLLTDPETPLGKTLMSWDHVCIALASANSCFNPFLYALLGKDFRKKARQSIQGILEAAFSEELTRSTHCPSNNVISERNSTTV
Source text: (§1) C5L2, C3aR and CD88-transfected RBL cells were produced as described (17). G16 was cloned from human monocytes mRNA and authenticated by sequencing. Human G16 and either C5L2 or CD88 were ligated into the bicistronic expression vector pIRES (Qiagen). Stable transfection of RBL-2H3 cells with pIRES constructs was achieved by electroporation (18). Cells underwent three rounds of fluorescence-activated cell sorting using anti-CD88 antibody (clone S5/1; Serotec) or anti-hemagglutinin peptide antibody (Roćhe Molecular Biochemicals, clone 12CA5), selecting the top 5% of receptor-positive cells in each round.
(§2) Competition binding assays were performed using 50 pM ^125I-C5a or ^125I-C3a (NEN) on adherent C5aR-transfected or C5L2-transfected RBL cells in 96-well microtiter plates (55 000/well) at 4° C. as described previously (22). Competition curves were generated by pre-incubating adherent cells with increasing concentrations of unlabelled complement fragments. The IC50, standard error values and linear regression analyses were obtained by using GraphPad Prism 2.0.

C5L2 [2] = target: T2, C5L2 (Homo sapiens, UniProt Q9P296); assay: Degranulation (β-hexosaminidase) and enhancement of IgE-receptor-mediated degranulation, C5L2-transfected RBL cells; assay type: cell-based
T2 construct: expressed in transfected cells
T2 sequence (Q9P296 whole entry): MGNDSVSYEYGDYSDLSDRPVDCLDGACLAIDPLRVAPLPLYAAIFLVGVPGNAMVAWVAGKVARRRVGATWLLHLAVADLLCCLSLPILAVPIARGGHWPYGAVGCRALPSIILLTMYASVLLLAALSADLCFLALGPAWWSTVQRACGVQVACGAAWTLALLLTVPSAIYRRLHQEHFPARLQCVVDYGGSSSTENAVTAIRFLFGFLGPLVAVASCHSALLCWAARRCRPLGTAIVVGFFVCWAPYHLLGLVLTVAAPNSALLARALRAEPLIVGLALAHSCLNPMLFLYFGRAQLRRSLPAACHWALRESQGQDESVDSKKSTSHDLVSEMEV

C5L2 [3] = target: T2, C5L2; assay: Triglyceride synthesis (3H oleate incorporation) in HEK293 cells stably transfected with C5L2; assay type: cell-based
Description: FIG. 15: Functional Response of HEK293 Cells Stably Transfected with C5L2 to ASP and Insulin: Cells were tested for response to ASP and insulin stimulation of triglyceride synthesis with 100 μM ^3H oleate for 4 hours. Results are calculated as nmol ^3H oleate incorporated into triglyceride/mg cell protein where 0 ASP is set as 100%. […] As in many biologic assays, the concentration required for activity at 37° C. under dynamic conditions is greater than the binding affinity (which is assessed at 4° C. under static conditions). For example, insulin Kd is in the pM range, but nM concentrations are required for activity. ASP Kd is high nM range, but biologic activity is in low μM range.

C5L2 [4] = target: T2, C5L2; assay: Competition binding with 125I-C3a, C5L2-transfected RBL cells; details: for IC50 / pD2 ± SE: C5L2 (^125I-C3a) expressed in RBL cells, 50 pM radioligand
Description: (§3) FIG. 1 illustrates C3a des-Arg^77 and C4a des-Arg^77 bind to RBL cells expressing C5L2. RBL cells transfected with C5L2 were incubated with the stated concentrations of complement fragments for 10 min prior to the addition of 50 pM ^125I-C3a (A) or 50 pM ^125I-C5a (B). Results are the means of n (n shown in Table 1) separate experiments performed in duplicate±S.E.;
as §1, §2

C5L2 [5] = target: T2, C5L2; assay: Competition binding with 125I-C5a, C5L2-transfected RBL cells
Description: as §3, §1, §2

CD88 [6] = target: T3, CD88 (Homo sapiens, UniProt P21730); assay: Radiolabelled ligand competition receptor binding, CD88-transfected RBL cells
T3 construct: expressed in transfected cells
T3 sequence (P21730 1-350): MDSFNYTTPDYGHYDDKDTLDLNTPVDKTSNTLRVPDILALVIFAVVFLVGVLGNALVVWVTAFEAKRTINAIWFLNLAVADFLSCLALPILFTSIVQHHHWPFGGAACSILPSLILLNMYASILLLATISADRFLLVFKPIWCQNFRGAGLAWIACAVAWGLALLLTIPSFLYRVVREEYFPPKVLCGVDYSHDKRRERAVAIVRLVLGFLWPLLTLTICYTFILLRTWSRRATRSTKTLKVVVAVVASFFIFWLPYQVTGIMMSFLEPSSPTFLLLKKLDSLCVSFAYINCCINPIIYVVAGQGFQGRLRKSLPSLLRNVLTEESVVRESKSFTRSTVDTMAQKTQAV
Source text: as §1, §2

[7] = target: T4, human formyl peptide-like receptor-1 (Homo sapiens, UniProt P25090); assay: Enhancement of degranulation, RBL cells transfected with an irrelevant receptor; assay type: cell-based; details: RBL cells transfected with FPRL-1, FIG. 3B
T4 construct: expressed in transfected cells; host or cells: RBL cells
T4 sequence (P25090 1-351): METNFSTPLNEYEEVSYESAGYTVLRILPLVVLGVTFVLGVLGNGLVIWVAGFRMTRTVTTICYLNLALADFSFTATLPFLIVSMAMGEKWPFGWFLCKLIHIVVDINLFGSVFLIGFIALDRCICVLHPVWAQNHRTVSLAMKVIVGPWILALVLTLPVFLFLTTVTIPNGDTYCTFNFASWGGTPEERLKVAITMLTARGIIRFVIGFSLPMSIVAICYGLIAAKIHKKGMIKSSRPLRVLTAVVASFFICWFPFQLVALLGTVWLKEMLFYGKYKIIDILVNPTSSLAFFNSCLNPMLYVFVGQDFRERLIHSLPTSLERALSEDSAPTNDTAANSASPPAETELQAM
Description: FIG. 3 illustrates C3a des-Arg^77 enhances the degranulation response to cross-linkage of the high affinity IgE receptor in cells transfected with C5L2. RBL cells transfected with A), C5L2 or B), an irrelevant receptor (human formyl peptide-like receptor-1) were incubated overnight with […] IgE^DNP and then treated with the stated concentrations of C5a des-Arg^74, C4a des-Arg^77 or C3a des-Arg^77 or ASP for 15 minutes prior to the addition of the cross-linking agent, HSA-DNP at 100 ng/ml. Degranulation was assessed as the secretion of β-hexosaminidase. Results are shown as a percentage of the release stimulated by 100 ng/ml HSA-DNP in the absence of anaphylatoxin (control=1) and are means of 3-6 separate experiments performed in triplicate, ±S.E.
(§4) Cellular activation was measured as the release of -hexosaminidase from intracellular granules (20). In the enhancement of degranulation assay, cells were treated with 1 μg/ml IgE^DNP (21) overnight, then with chemoattractants or peptides for 10 min prior to stimulation with 100 ng/ml DNP-HSA (Sigma) for 15 minutes. EC50 and standard error values were obtained by iterative curve fitting using GraphPad Prism 2.0.

CD88 [8] = target: T3, CD88; assay: Degranulation of CD88-transfected RBL cells; assay type: cell-based
C3aR [9] = target: T1, C3aR; assay: Degranulation of C3aR-transfected RBL cells; assay type: cell-based; details: RBL cells transfected with C3aR; data not shown
Description: as §4

CD88+Gα16 = target: T5, CD88+Gα16 (Homo sapiens, UniProt P21730); assay: Degranulation of CD88+Gα16 co-transfected RBL cells; assay type: cell-based; details: 10 ng/ml PT
T5 construct: expressed in transfected cells
T5 sequence (P21730 1-350): T3 sequence (P21730 1-350)

C5L2 [10] = target: T2, C5L2; assay: Fluorescent ligand binding/uptake (FACS), HEK 293 cells transiently transfected with C5L2
Description: (§5) HEK 293 cells were transfected with C3aR (A) or C5L2 (B) and three days later cells were incubated for 30 minutes with the indicated concentrations of FLUOS-labelled C3a or ASP, respectively. Binding/uptake was assessed by FACS, and the percentage of cells above a fluorescence intensity of 8 was determined. The fluorescence histograms at the highest and lowest ligand concentrations are shown in the insets;
(§6) HEK 293 cells were seeded into 6-well plates at 1×10^6 cells/well the day before transfection. C5L2 in vector pEE6hCMV.neo (Celltech) or C3aR in vector pcDNA1/AMP (Invitrogen) at 2 μg DNA/well were transfected with Lipofectamine2000 (5 μl/well) (Invitrogen) according to the manufacturer's protocol. Cells were assayed for binding/uptake three days post-transfection.
(§7) ASP or C3a was labelled with FLUOS (Roche Biochemicals) at a molar ratio of 1:10 (ligand:FLUOS) for two hours according to the manufacturer's recommendations. Labelled ligand was separated from free FLUOS on a Sephadex G25M column and stored in aliquots at −80° C.
(§8) Cells were incubated with the indicated concentrations of FLUOS-labelled ASP or C3a for 30 minutes at 37° C. in binding buffer (23) and washed three times with cold binding buffer. Cells were then detached with 0.25% trypsin/0.02% EDTA in PBS, fixed with 1% paraformaldehyde, washed with PBS, and assayed by fluorescence-activated cell scanning.

C3aR [11] = target: T1, C3aR; assay: Fluorescent ligand binding/uptake (FACS), HEK 293 cells transiently transfected with C3aR; details: HEK 293 transiently transfected with C3aR; mean±SD, n=3
Description: as §5, §6, §7, §8

[12] = HEK-C5L2 stable transfectants, 100 μM ^3H oleate, 4 hours
[13] = C5L2 (^125I-C5a) expressed in RBL cells, 50 pM radioligand

^125I-ASP: ^125I-labelled ASP [reference compound]
binding to C3aR-transfected cells (C3aR [1]; ^125I-labelled ligand, data not shown): does not bind to C3aR-transfected cells

ASP: Plasma ASP (C3a des-Arg^77), human C3a des-Arg^77 purified as acylation-stimulating protein
EC50 compared with recombinant C3a des-Arg^77 (C5L2 [2]; enhancement of IgE-mediated degranulation, FIG. 3A): identical EC50
concentration for biologic activity (C5L2 [3]; 37° C. under dynamic conditions): low μM range
stimulation of triglyceride synthesis (C5L2 [3]; [12]): increasing triglyceride synthesis in a concentration dependent manner
stimulation of triglyceride synthesis (C5L2 [3]; non-transfected HEK cells): not responsive to ASP
Kd (C5L2 [4]; binding affinity assessed at 4° C. under static conditions): high nM range

C3a: 77 amino acid complement fragment
IC50 (C5L2 [5]; [13]): 23 µM
IC50 (CD88 [6]; CD88 expressed in RBL cells, competition binding, 4° C., read-out: IC50 (concentration of unlabelled ligand resulting in 50% of maximal radioligand binding)): 23 µM
IC50 (C5L2 [4]): 0.167 µM
pD2 ± SE (C5L2 [4]): 6.78 ± 0.10

C3a des-Arg^77
enhancement of degranulation [7]: small enhancement of degranulation
stimulation of degranulation (CD88 [8]; RBL cells transfected with CD88, data not shown): neither C3a des-AXg^77 nor C4a des-Arg^77 can stimulate degranulation
direct stimulation of degranulation (C5L2 [2]; without IgE receptor cross-linking, data not shown): neither recombinant nor purified C3a des-Arg^77 (or any other ligand) is able to directly stimulate degranulation
IC50 (C5L2 [5]; [13]): 18 µM
pD2 ± SE (C5L2 [5]; [13]): 4.73 ± 0.16
competition with ^125I-C5a binding to C5L2 (C5L2 [5]; FIG. 1B): cannot compete effectively
affinity for C3aR (C3aR [1]; Table I): no detectable affinity
stimulation of degranulation (C3aR [9]): neither C3a des-AXg^77 nor C4a des-Arg^77 can stimulate degranulation
competition with ^125I-C5a binding to CD88 (CD88 [6]): cannot compete effectively
IC50 (C5L2 [4]): 0.526 µM
pD2 ± SE (C5L2 [4]): 6.24 ± 0.10
competition with ^125I-C3a for C5L2 binding (C5L2 [4]; FIG. 1A): can compete strongly

pertussis toxin [reference compound]
effect on degranulation response to C5a (CD88 [8]; CD88 alone, 0-10 ng/ml PT for 4 h prior to 50 nM C5a): inhibited the degranulation response
effect on enhancement of degranulation by ASP/C3a des-Arg^77 (C5L2 [2]; C5L2 alone, 10 ng/ml PT for 4 h, FIG. 4C): can be inhibited by pre-treating cells with pertussis toxin
effect on degranulation response to C5a (CD88+Gα16): a small inhibition of degranulation

FLUOS-ASP: ASP labelled with FLUOS at a molar ratio of 1:10
Kd (C5L2 [10]; HEK 293 transiently transfected with C5L2, 30 minutes at 37° C., flow cytometry, read-out: half maximal fluorescence intensity (binding/uptake)): ~0.003 µM
binding to mock-transfected cells (C5L2 [10]; mock-transfected HEK 293 cells, 10 nM): no binding
binding (basal binding=100%) (C3aR [11]): 103%±14%

insulin
stimulation of triglyceride synthesis (C5L2 [3]; [12]): neither HEK nor HEK-C5L2 are responsive to insulin
stimulation of triglyceride synthesis (C5L2 [3]; non-transfected HEK cells): neither HEK nor HEK-C5L2 are responsive to insulin
